Source: patent publication JP2018150260A (dated 2018)

Target: T1, myc3 タグ融合 PB1 サブユニット(1aa-81aa), expressed in 293T cells (influenza virus H1N1, UniProt P03431 1-81)
T1 construct: range 1-81
Assay: Western blot of 293T lysate (denatured protein)

T1 sequence (P03431 1-81): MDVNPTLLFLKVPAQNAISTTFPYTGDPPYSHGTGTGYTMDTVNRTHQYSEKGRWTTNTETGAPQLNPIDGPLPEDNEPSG

B1: PA 11-9.4モノクローナル抗体 (antibody, V domains shown)
VH: AEFVKPGASVKLSCIASGFNIKDTYMYWVKQRPEQGLEWIGRIDPANGNTKYDPKFQGKATITTDTSSNTAYLQVSSLTSEDTAVYYCAYRYDYYFDYWGQGTTLTVSS
VL: not shown
notes: also called PA 11-9.4 抗体
  binding result: no binding
